Measurements reported in patent US20040167074A1, “Therapeutic applications of mFLINT polypeptides” (priority 1998, published 2004).
Values joined by “and” are separate entries in the source; they are usually repeats but may differ in a detail not shown here. Equal entries are not always repeated. Blank lines part the entries; values can stand above or below the molecule they belong to.

Legend:
[1] = target: soluble Fas L (recombinant FasL)
[2] = target: FasL expressed by anti-CD3-activated Jurkat cells
[3] = target: FasL expressed by anti-CD3-activated Jurkat cells; remark: listed apart in the source
[4] = test system: Jurkat cells; experiment: anti-CD3 induced Jurkat apoptosis (Annexin V/PI, FACS); type: cell-based; conditions: Example 12; Jurkat + antiCD3 + 10 μM DEVD-cmk
Procedure: Non-tissue treated 24 well plates (Decton Dickinson, Mansfield, Mass.) were coated with 0.5 ml of 1 ug/ml anti-CD3 (Farmingen) in PBS for 90 min at 37° C. The plate was washed once with PBS.
Cells were incubated overnight at 37° C. incubator and cells were then stained by Annexin V and PI staining. Apotosis was analyzed by flow cytometer (FACS). Cell apoptosis was indicated by positive staining with Annexin V.

[5] = test system: Jurkat cells; experiment: Recombinant FasL induced Jurkat cell apoptosis (Annexin V/PI, FACS); type: cell-based; conditions: Jurkat + inducer alone 200 ng/ml, overnight
Procedure: One milliliter of 1×10^6 cell/ml was added into each well of 24 well tissue culture plate and treated with following reagents: soluble Fas L (200 ng), Fas L plus 1 ug mFLINT, Fas L plus 1 ug OPG2-Fc, Trail (200 ng), Trail plus 1 ug mFLINT. Cells were incubated overnight at 37° C. and then stained with Annexin V and PI.

[6] = target: T1, FasL (Homo sapiens, UniProt P48023); experiment: BiaCore real-time biomolecular interaction analysis (surface plasmon resonance); type: binding; conditions: immobilized FasL (monomer bound), analyte in solution
T1 construct: purchased Kamiya Biomedical Company
T1 sequence (P48023 130-281 limits assumed): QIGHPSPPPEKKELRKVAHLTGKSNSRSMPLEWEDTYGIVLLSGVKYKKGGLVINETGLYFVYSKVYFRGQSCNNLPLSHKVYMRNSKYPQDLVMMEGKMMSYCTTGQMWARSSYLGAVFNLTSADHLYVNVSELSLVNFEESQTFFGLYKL
From the text: FLINT-Fas L binding may be confirmed and specifics of binding determined (e.g., kinetics, specificity, affinity, cooperativity, relative binding pattern, concentration) using real-time biomolecular interaction analysis. This technology confers the ability to study biomolecular interactions in real time, without labeling any of the interactants. In particular, it takes advantage of the optical phenomenon surface plasmon resonance, and detection depends on changes in the mass concentration of macromolecules at the biospecific interface. Interactions are followed in real time, so that kinetic information is readily derived. In many cases, investigations can be performed without prior purification of components.
Measurements are accomplished using a BiaCore 2000 instrument. The instrument, accompanying chips, immobilization and maintenance kits and buffers are obtained from Biacore AB, Rapsgatan 7, S-754 50 Uppsala, Sweden. FasL is obtained from Kamiya Biomedical Company, 910 Industry Drive, Seattle, Wash. 98188, Guanidine Isothiocyanate Solution from GibcoBRL, and mFLINT is prepared as in Examples 8 and 9.
Experiments using immobilized FasL loaded with a solution containing mFLINT. […] This is explained by the fact that FasL is a trimer, yet here FasL monomer was bound. Further experiments utilized bound FLINT with FasL in solution, allowing for trimer formation. […] This observations indicate that FLINT should effectively compete with Fas for FasL binding, which likely explains the therapeutic benefit observed in experiments detailed below.

[7] = target: T2, hFasLigand (Flag-tagged) (Homo sapiens, UniProt P48023); experiment: ELISA: FasLigand binding to adsorbed FLINT and Fas; conditions: 100 ng receptor adsorbed
T2 sequence (P48023 103-281 limits assumed): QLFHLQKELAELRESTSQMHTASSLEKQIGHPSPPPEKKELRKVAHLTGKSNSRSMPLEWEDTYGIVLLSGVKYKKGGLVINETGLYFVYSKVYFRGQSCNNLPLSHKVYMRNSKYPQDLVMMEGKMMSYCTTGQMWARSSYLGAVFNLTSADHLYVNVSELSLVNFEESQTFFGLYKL
Procedure: FLINT and Fas (100 ng of each) were adsorbed on to an ELISA plate. hFasLigand (Flag-tagged) was added at different concentrations to a maximum concentration of 300 ng down to 0.1 ng on TBST plus a 0.1% solution containing 1 microgram/ml of M2 Abs. After washing of the plate, anti-mouse-Abs-HRP (1:3000 dilution, Bio-Rad) was added to the wells. After washings, visualization enzymatic reaction using ABTS as a substrate was performed.

[8] = test system: Mouse T cell hybridoma cells (LTT cells); experiment: Murine FasL-mediated apoptosis of LTT cells (MTS cytotoxicity assay); type: cell-based; conditions: test agent 1 μg/ml
Procedure: (§1) LTT,2,14,11 cells (LTT cells), see Glasebrook, Eur.J.Immunol. 17: 1561-65 (1987), were used in this Annexin V assay. On the first day, a 96 well plate was coated with anti-CD3 (2C11) at a serial dilutions. On the second day, 100,000 LTT cells were added, in 50 μl of medium per well, along with 50 μl of medium to the control wells and 50 μl of medium containing:
The same steps as in Example 16 were followed on Day 1 and Day 2. On Day 3 20 ul of MTS solution (Promega) was added to the cells which were then incubated at 37° C. for 2 hours. Using a plate reader, the absorbances at 490 nm wavelength were collected.

[9] = test system: Mouse T cell hybridoma cells (LTT cells); experiment: Murine FasL-mediated apoptosis of LTT cells (Annexin V assay); type: cell-based; conditions: test agent 1 μg/ml
Procedure: as §1
Group 1. solubleFas (sFas)(FasFc, mouse), with a final concentration of 1 μg/ml
Group 2. mFLINT (human), with a final concentration of 1 ug/ml
Group 3. anti-FasL (mouse), with a final concentration of 1 ug/ml.
These then were incubated overnight, at 37° C., in 5% CO2;
On the following day (Day 3), the cells were collected from each well, washed and labeled with Annexin V and PI, following Flow cytometry analysis.

[10] = test system: LIGHT; experiment: LIGHT cell surface binding assay by flow cytometry
Procedure: To confirm the dot blot binding between LIGHT and mFLINT, 293 cells were transiently transfected with LIGHT expression construct overnight. On the next day, cells were detached and incubated with mFLINT-Flag on ice. […] As a control we used vector transfected cells. To make sure that the binding was specific, a competition assay with 10 fold access of untagged mFLINT was performed.
More particularly, 6 well dishes of cells were transfected as above. Both vector and m-LIGHT expressing cells were provided. Cells were detached from the plates by vigorous pipetting with a P100 Pipettor. Then, in PBS/BSA, 0.1%, cells were exposed to one of the following combinations, set forth in a-d.
a. GST/flag, mFLINT/flag, or HVEM at 20 nM;
b. FLINT/flag at 20 nM+GST/flag or mFLINT or HVEM at 200 nM;
c. FLINT/flag at 20 nM+HVEM+anti-human FAS ligand at 200 n-M;
d. anti-human FAS ligand-biotin at 1 μg/ml
Cells were incubated on ice for 30 minutes and washed with PBS/BSA, 0.1%. Cells then were exposed either to anti-human IgG-biotin, 1 μg/ml (for detection of HVEM), or to M2-biotin, 2 μg/ml (for detection of flag conjugates). Cells were incubated on ice for 30 minutes and washed with PBS/BSA, 0.1%. Thereafter, cells were exposed to streptavidin Alexa 488 (SIGMA) at a 1:1000 dilution. Again, cells were incubated on ice for 30 minutes and washed with PBS/BSA, 0.1 1%. Cells were analyzed using a FACSORT flow cytometer (Decton Dickinson) to determine binding.

apoptosis of Jurkat cells, Annexin V and PI (FACS) [1]: 70.6 | apoptosis of Jurkat cells, positive staining with Annexin V (FACS) [2]: 45.8 | apoptosis of Jurkat cells [3]: 26.2
Molecule: OPG2-Fc (Fc fusion)

Molecule: DEVD-cmk [DEVDcmk, reference compound]
Cell apoptosis (positive staining with Annexin V) [4]: 30.80

B1: TRAIL: TNF ligand TRAIL (RnD Systems) (protein, UniProt P50591 1-281, looked up)
Tumor necrosis factor ligand …: MAMMEVQGGPSLGQTCVLIVIFTVLLQSLCVAVTYVYFTNELKQMQDKYSKSGIACFLKEDDSYWDPNDEESMNSPCWQVKWQLRQLVRKMILRTSEETISTVQEKQQNISPLVRERGPQRVAAHITGTRGRSNTLSSPNSKNEKALGRKINSWESSRSGHSFLSNLHLRNGELVIHEKGFYYIYSQTYFRFQEEIKENTKNDKQMVQYIYKYTSYPDPILLMKSARNSCWSKDAEYGLYSIYQGGIFELKENDRIFVSVTNEHLIDMDHEASFFGAFLVG
Cell apoptosis (Annexin V and PI, FACS) [5]: 17.47 and 17.43

Kd [6]: 162 nM | OD, 405 nM ([7]; FasL 0.1 ng): 0 | OD, 405 nM ([7]; FasL 0.5 ng): 0 | OD, 405 nM ([7]; FasL 1.0 ng): 0 | OD, 405 nM ([7]; FasL 5.0 ng): .01 | OD, 405 nM ([7]; FasL 10 ng): .03 | OD, 405 nM ([7]; FasL 50 ng): .045 | OD, 405 nM ([7]; FasL 100 ng): .18
B2: Fas: Fas receptor protein adsorbed on ELISA plate or compared in BiaCore (protein, UniProt P25446 22-169, looked up)
extracellular domain: QGTNSISESLKLRRRVRETDKNCSEGLYQGGPFCCQPCQPGKKKVEDCKMNGGTPTCAPCTEGKEYMDKNHYADKCRRCTLCDEEHGLEVETNCTLTQNTKCKCKPDFYCDSPGCEHCVRCASCEHGTLEPCTATSNTNCRKQSPRNR
modifications: extracellular domain
notes: Fas receptor protein adsorbed on ELISA plate or compared in BiaCore

B3: SFas: solubleFas (sFas)(FasFc, mouse) (protein)
chain: QGTNSISESLKLRRRVRETDKNCSEGLYQGGPFCCQPCQPGKKKVEDCKMNGGTPTCAPCTEGKEYMDKNHYADKCRRCTLCDEEHGLEVETNCTLTQNTKCKCKPDFYCDSPGCEHCVRCASCEHGTLEPCTATSNTNCRKQSPRNR
MTS absorbance at 490 nm ([8]; Anti CD3 conc. 0 μg/ml): 1.774 | MTS absorbance at 490 nm ([8]; Anti CD3 conc. 0.0014 μg/ml): 1.968 | MTS absorbance at 490 nm ([8]; Anti CD3 conc. 0.004 μg/ml): 1.929 | MTS absorbance at 490 nm ([8]; Anti CD3 conc. 0.012 μg/ml): 1.779 | MTS absorbance at 490 nm ([8]; Anti CD3 conc. 0.037 μg/ml): 1.777 | MTS absorbance at 490 nm ([8]; Anti CD3 conc. 0.11 μg/ml): 1.638 | MTS absorbance at 490 nm ([8]; Anti CD3 conc. 0.33 μg/ml): 1.624 | MTS absorbance at 490 nm ([8]; Anti CD3 conc. 1 μg/ml): 1.459 | % Annexin V Positive ([9]; Anti CD3 0): 23.14% | % Annexin V Positive ([9]; Anti CD3 0.11): 41.08% | % Annexin V Positive ([9]; Anti CD3 0.33): 47.28% | % Annexin V Positive ([9]; Anti CD3 1): 56.66%

B4: mFLINT-Flag: FLINT with the Flag sequence attached at the C-terminal end: [FLINT]-DYKDDDDK (protein)
chain: VAETPTYPWRDAETGERLVCAQCPPGTFVQRPCRRDSPTTCGPCPPRHYTQFWNYLERCRYCNVLCGEREEEARACHATHNRACRCRTGFFAHAGFCLEHASCPPGAGVIAPGTPSQNTQCQPCPPGTFSASSSSSEQCQPHRNCTALGLALNVPGSSSHDTLCTSCTGFPLSTRVPGAEECERAVIDFVAFQDISIKRLQRLLQALEAPEGWGPTPRAGRAALQLKLRRRLTELLGAQDGALLVRLLQALRVARMPGLERSVRERFLPVHDYKDDDDK
cell surface binding (flow cytometry peak shift) ([10]; LIGHT-transfected 293 cells): peaks shifted only when LIGHT expressing cells were stained with mFLINT-Flag | cell surface binding (flow cytometry peak shift) ([10]; vector transfected control cells): no shift in the control cells
